Data on 17 molecules can be found in patent publication US6887705B1, “Tyrosine phosphorylated cleavage furrow-associated proteins (PSTPIPs)” (Genentech, Inc., priority 1997, dated 2005).

The target in the assay is T1, PTP HSCF (Mus musculus, UniProt Q61152).
T1 construct: the PST (and C-terminal homolog) of PTP HSCF (amino acids 304-453); made in house; host or cells: E. coli DH5-alpha
T1 sequence (Q61152 304-453): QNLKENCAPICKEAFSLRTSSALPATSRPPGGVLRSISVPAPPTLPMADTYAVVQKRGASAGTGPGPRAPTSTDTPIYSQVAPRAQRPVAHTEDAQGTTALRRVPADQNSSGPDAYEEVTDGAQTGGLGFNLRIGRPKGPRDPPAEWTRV
Briefly: In vitro GST pull-down binding of PST PIP forms to PTP HSCF. To be noted: for precipitation of in vitro translated PTP HSCF by GST fusions of PSTPIP or its domains: ~1 microgram per ml GST fusion protein. The protocol: The binding was carried out according to the method of Wong and Johnson (Wong et al., J. Biol. Chem. 271(35):20981-20984 (1996)). Briefly, 1 μg of plasmid with either the PSTPIP protein or PTP HSCF under the control of the Sp6 promoter was in vitro transcribed/translated using the Promega™ TnT Rabbit Reticulocyte™ system. Samples were diluted in 50 mM HEPES, pH 7.2, 1% triton X 100, 10% glycerol, 100 mM NaCl, 5 mM EDTA and 2 μg/ml each of leupeptin, pepstatin, aprotinin, and PMSF. […] This was reacted for 1 hour at 4° C. and then the resin washed 6 times in HEPES/Triton binding buffer before SDS gel electrophoresis. The peptides were synthesized on an automated Milligen 9050 Peptide Synthesizer using standard solid phase chemistry with FMOC protected amino acids on a p-alkoxybenzyl alcohol resin. Dried peptides were re-suspended in the HEPES/Triton Binding buffer at a concentration of 10 mg/ml. Peptide inhibition was performed by adding the peptide first to the in vitro translation product and then the GST-fusion followed by the GSH-Sepharose. The binding/washing steps were as previously described. The peptides synthesized and the PTPs they were derived from were: • PXXP-HSCF: 432[…]451 (PTP HSCF) (SEQ ID NO:20), • PXXP-PEP: 782GFGNRFSKPKGPRNPPSAW800 (PTP PEP) (SEQ ID NO:21), • PXXP-PEST: 761[…]780 (PTP PEST) SEQ ID NO:22), • PXXP-CONTROL: 334[…]353 (PTP HSCF) (SEQ ID NO:23).
In vitro binding analyses between various PTP HSCF and PST PIP constructs were performed as previously described (Spencer et al, (1997), supra). Briefly, plasmids were transcribed and translated in vitro using the TnT Rabbit Reticulocyte Lysate System (Promega). Samples were diluted in 50 mM HEPES, pH 7.2, 1% triton X-100, 10% glycerol, 100 mM NaCl, and 2 μg/ml each of leupeptin, pepstatin, aprotinin and PMSF (lysis buffer). Samples were than reacted with GST fusion proteins at various concentrations, and the bound proteins were centrifuged using glutathione-sepharose beads and analyzed on SDS polyacrylamide gels. C-terminally-derived peptide inhibition studies were performed by incubating the GST fusion protein binding reactions in the presence of 10 μg/ml of the indicated peptides. Peptides were produced by FMOC-protected amino acids as previously described (Spencer et al, (1997), supra). In vivo interactions between various forms of PTP HSCF and PST PIP were also performed as previously described (Spencer et al, (1997), supra). Briefly, COS cells were transfected with various constructs, and after 48 hours, lysates were prepared and immunoprecipitated with antibodies to either the FLAG epitope contained at the C-terminus of PST PIP or an HA epitope contained at the N-terminus of PTP HSCF. The resultant blots were probed with anti-FLAG to detect PST PIP, anti-HA to detect PTP HSCF or anti-phosphotyrosine to detect levels of this modified amino acid in each protein.

Changes are numbered by the printed parent chain. In names and notes the source's numbering stands.

As to “SH3 region: GST fusion containing the SH3 domain of PSTPIP”, the “precipitation of in vitro translated PTP HSCF by GST fusions of PSTPIP or its domains” value was “not the SH3 region”.
Take “amino acids 1-264 of the coiled coil domain: form of PST PIP containing amino acids 1-264”: the “binding of in vitro translated PST PIP forms to GST fusion of C-terminal 149 amino acids of PTP HSCF” value (from here on “binding”) is listed as “binding of PTP HSCF could be obtained”.
Regarding “coiled coil domain: GST fusion containing the coiled coil domain of PSTPIP”, the “precipitation of in vitro translated PTP HSCF by GST fusions of PSTPIP or its domains” value is reported as “mediated by the coiled coil domain”.

B1: I122MD: PST PIP clustered alanine substitution starting at I122 (protein)
chain: MMAQLQFRDAFWCRDFTAHTGYEVLLQRLLDGRKMCKDVEELLRQRAQAEERYGKELVQIARKAGGQTEMNSLRTSFDSLKQQTENVGSAHIQLALALREELRSLEEFRERQKEQRKKYEAAAARVQKSKLSLYKKTMESKKAYDQKCRDADDAEQAFERVSANGHQKQVEKSQNKAKQCKESATEAERVYRQNIEQLERARTEWEQEHRTTCEAFQLQEFDRLTILRNALWVHCNQLSMQCVKDDELYEEVRLTLEGCDVEGDINGFIQSKSTGREPPAPVPYQNYYDREVTPLIGSPSIQPSCGVIKRFSGLLHGSPKTTPSAPAASTETLTPTPERNELVYASIEVQATQGNLNSSAQDYRALYDYTAQNSDELDISAGDILAVILEGEDGWWTVERNGQRGFVPGSYLEKLDYKDDDDK
B1: the “binding” value is given as “either no or a minor change in the binding activity”.

B2: L133YK: PST PIP clustered alanine substitution starting at L133 (protein)
chain: B1 chain with A122I, A123M, A124D, L133A, Y134A, K135A
On to B2, for which the “binding” value is given as “either no or a minor change in the binding activity”.

B3: E159RV: PST PIP clustered alanine substitution starting at E159 (protein)
chain: B1 chain with A122I, A123M, A124D, E159A, R160A, V161A
As to B3, the “binding” value is given as “either no or a minor change in the binding activity”.

B4: E110RQ: PST PIP clustered alanine substitution starting at E110 (protein)
chain: B1 chain with E110A, R111A, Q112A, A122I, A123M, A124D
For B4, the “binding” value was “either no or a minor change in the binding activity”.

B5: R62K: PST PIP clustered alanine substitution starting at R62 (protein)
chain: B1 chain with R62A, K63A, A122I, A123M, A124D
On to B5, for which the “binding” value was “either no or a minor change in the binding activity”.

B6: D145QK: PST PIP clustered alanine substitution starting at D145 (protein)
chain: B1 chain with A122I, A123M, A124D, D145A, Q146A, K147A
For the molecule B6, the “binding” value is “either no or a minor change in the binding activity”.

B7: R99EE: PST PIP clustered alanine substitution starting at R99 (protein)
chain: B1 chain with R99A, E100A, E101A, A122I, A123M, A124D
In the case of B7, the “binding” value is listed as “either no or a minor change in the binding activity”.

B8: F221: PST PIP with phenylalanine 221 mutated to alanine (protein)
chain: B1 chain with A122I, A123M, A124D, F221A
Take B8: the “binding” value is reported as “no effect on PTP HSCF binding was observed”.

B9: D38VE: PST PIP clustered alanine substitution starting at D38 (protein)
chain: B1 chain with D38A, V39A, E40A, A122I, A123M, A124D
In the case of B9, the “binding” value was “either no or a minor change in the binding activity”.

B10: N86VG: PST PIP clustered alanine substitution starting at N86 (protein)
chain: B1 chain with N86A, V87A, G88A, A122I, A123M, A124D
Consider B10, for which the “binding” value was “either no or a minor change in the binding activity”.

B11: Q169VE: PST PIP clustered alanine substitution starting at Q169 (protein)
chain: B1 chain with A122I, A123M, A124D, Q169A, V170A, E171A
For B11, the “binding” value is “either no or a minor change in the binding activity”.

B12: E50ER: PST PIP clustered alanine substitution starting at E50 (protein)
chain: B1 chain with E50A, E51A, R52A, A122I, A123M, A124D
B12: the “binding” value is recorded as “either no or a minor change in the binding activity”.

B13: L224: PST PIP with leucine 224 mutated to alanine (protein)
chain: B1 chain with A122I, A123M, A124D, L224A
On to B13, for which the “binding” value is reported as “no effect on PTP HSCF binding was observed”.

B14: tryptophan at position 205: PST PIP with tryptophan 205 mutated to alanine (protein)
chain: MMAQLQFRDAFWCRDFTAHTGYEVLLQRLLDGRKMCKDVEELLRQRAQAEERYGKELVQIARKAGGQTEMNSLRTSFDSLKQQTENVGSAHIQLALALREELRSLEEFRERQKEQRKKYEAIMDRVQKSKLSLYKKTMESKKAYDQKCRDADDAEQAFERVSANGHQKQVEKSQNKAKQCKESATEAERVYRQNIEQLERARTEAEQEHRTTCEAFQLQEFDRLTILRNALWVHCNQLSMQCVKDDELYEEVRLTLEGCDVEGDINGFIQSKSTGREPPAPVPYQNYYDREVTPLIGSPSIQPSCGVIKRFSGLLHGSPKTTPSAPAASTETLTPTPERNELVYASIEVQATQGNLNSSAQDYRALYDYTAQNSDELDISAGDILAVILEGEDGWWTVERNGQRGFVPGSYLEKL
modifications: Mus Musculus
notes: PST PIP with tryptophan 205 mutated to alanine
As for B14, the “binding” value is reported as “no effect on PTP HSCF binding was observed”.
